The record followed here is patent US20240060082A1.

The target in this test is soybean's RPS5 homolog (soybean). Description: cell-based or functional assay.
With “PBS1-R17 (modified Arabidopsis thaliana PBS1 with cleavage site R17, QVFEFL) (from UniProt Q9FE20 1-456)”, the resistance to the three soy rust strains in transgenic soybean, compared to control event G40 is greater than 85 % efficacy.
Next, “PBS1-R19 (modified Arabidopsis thaliana PBS1 with cleavage site R19, QMIFLR) (from UniProt Q9FE20 1-456)”: greater than 85 % efficacy; “PBS1-R20 (modified Arabidopsis thaliana PBS1 with cleavage site R20, IFLWSA) (from UniProt Q9FE20 1-456)”: greater than 85 % efficacy.
